According to IntAct's records for PubMed 17525332:

B1: DNA replication complex GINS protein PSF2 (Homo sapiens), Q9Y248 (parent)
chain: MDAAEVEFLAEKELVTIIPNFSLDKIYLIGGDLGPFNPGLPVEVPLWLAINLKQRQKCRLLPPEWMDVEKLEKMRDHERKEETFTPMPSPYYMELTKLLLNHASDNIPKADEIRTLVKDMWDTRIAKLRVSADSFVRQQEAHAKLDNLTLMEINTSGTFLTQALNHMYKLRTNLQPLESTQSQDF
B2: Origin recognition complex subunit 3 (Homo sapiens), Q9UBD5 (parent)
chain: MATSSMSKGCFVFKPNSKKRKISLPIEDYFNKGKNEPEDSKLRFETYQLIWQQMKSENERLQEELNKNLFDNLIEFLQKSHSGFQKNSRDLGGQIKLREIPTAALVLGVNVTDHDLTFGSLTEALQNNVTPYVVSLQAKDCPDMKHFLQKLISQLMDCCVDIKSKEEESVHVTQRKTHYSMDSLSSWYMTVTQKTDPKMLSKKRTTSSQWQSPPVVVILKDMESFATKVLQDFIIISSQHLHEFPLILIFGIATSPIIIHRLLPHAVSSLLCIELFQSLSCKEHLTTVLDKLLLTTQFPFKINEKVLQVLTNIFLYHDFSVQNFIKGLQLSLLEHFYSQPLSVLCCNLPEAKRRINFLSNNQCENIRRLPSFRRYVEKQASEKQVALLTNERYLKEETQLLLENLHVYHMNYFLVLRCLHKFTSSLPKYPLGRQIRELYCTCLEKNIWDSEEYASVLQLLRMLAKDELMTILEKCFKVFKSYCENHLGSTAKRIEEFLAQFQSLDETKEEEDASGSQPKGLQKTDLYHLQKSLLEMKELRRSKKQTKFEVLRENVVNFIDCLVREYLLPPETQPLHEVVYFSAAHALREHLNAAPRIALHTALNNPYYYLKNEALKSEEGCIPNIAPDICIAYKLHLECSRLINLVDWSEAFATVVTAAEKMDANSATSEEMNEIIHARFIRAVSELELLGFIKPTKQKTDHVARLTWGGC
B3: Zinc finger CCHC domain-containing protein 8 (Homo sapiens), Q6NZY4 (parent)
chain: MAAEVYFGDLELFEPFDHPEESIPKPVHTRFKDDDGDEEDENGVGDAELRERLRQCEETIEQLRAENQELKRKLNILTRPSGILVNDTKLDGPILQILFMNNAISKQYHQEIEEFVSNLVKRFEEQQKNDVEKTSFNLLPQPSSIVLEEDHKVEESCAIKNNKEAFSVVGSVLYFTNFCLDKLGQPLLNENPQLSEGWEIPKYHQVFSHIVSLEGQEIQVKAKRPKPHCFNCGSEEHQMKDCPMPRNAARISEKRKEYMDACGEANNQNFQQRYHAEEVEERFGRFKPGVISEELQDALGVTDKSLPPFIYRMRQLGYPPGWLKEAELENSGLALYDGKDGTDGETEVGEIQQNKSVTYDLSKLVNYPGFNISTPRGIPDEWRIFGSIPMQACQQKDVFANYLTSNFQAPGVKSGNKRSSSHSSPGSPKKQKNESNSAGSPADMELDSDMEVPHGSQSSESFQFQPPLPPDTPPLPRGTPPPVFTPPLPKGTPPLTPSDSPQTRTASGAVDEDALTLEELEEQQRRIWAALEQAESVNSDSDVPVDTPLTGNSVASSPCPNELDLPVPEGKTSEKQTLDEPEVPEIFTKKSEAGHASSPDSEVTSLCQKEKAELAPVNTEGALLDNGSVVPNCDISNGGSQKLFPADTSPSTATKIHSPIPDMSKFATGITPFEFENMAESTGMYLRIRSLLKNSPRNQQKNKKASE

Variants of: B1
Conditions: with chk2_human CHEK2, O96017
Sequence of chk2_human CHEK2, O96017 (O96017 whole entry): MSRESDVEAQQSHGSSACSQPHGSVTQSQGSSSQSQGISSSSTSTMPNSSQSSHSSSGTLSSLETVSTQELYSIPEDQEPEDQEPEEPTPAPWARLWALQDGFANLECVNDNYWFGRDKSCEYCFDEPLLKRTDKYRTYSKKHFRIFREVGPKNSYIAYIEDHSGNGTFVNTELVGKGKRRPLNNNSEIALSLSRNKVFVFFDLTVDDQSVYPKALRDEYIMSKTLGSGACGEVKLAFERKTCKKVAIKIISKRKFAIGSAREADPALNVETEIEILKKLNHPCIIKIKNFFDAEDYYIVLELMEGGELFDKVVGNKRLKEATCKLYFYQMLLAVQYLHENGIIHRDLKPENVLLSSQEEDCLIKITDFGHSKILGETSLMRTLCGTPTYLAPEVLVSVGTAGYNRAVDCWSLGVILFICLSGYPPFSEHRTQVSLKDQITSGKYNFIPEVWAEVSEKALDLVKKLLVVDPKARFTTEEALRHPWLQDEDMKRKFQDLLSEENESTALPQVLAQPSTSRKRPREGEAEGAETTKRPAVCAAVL

| Variant | effect of a mutation on the interaction |
| --- | --- |
| T180A;S182A | disrupting interaction |

Variants of: B2
Conditions: with brca1_human BRCA1, P38398
Target sequence in this assay (P38398 whole entry, looked up): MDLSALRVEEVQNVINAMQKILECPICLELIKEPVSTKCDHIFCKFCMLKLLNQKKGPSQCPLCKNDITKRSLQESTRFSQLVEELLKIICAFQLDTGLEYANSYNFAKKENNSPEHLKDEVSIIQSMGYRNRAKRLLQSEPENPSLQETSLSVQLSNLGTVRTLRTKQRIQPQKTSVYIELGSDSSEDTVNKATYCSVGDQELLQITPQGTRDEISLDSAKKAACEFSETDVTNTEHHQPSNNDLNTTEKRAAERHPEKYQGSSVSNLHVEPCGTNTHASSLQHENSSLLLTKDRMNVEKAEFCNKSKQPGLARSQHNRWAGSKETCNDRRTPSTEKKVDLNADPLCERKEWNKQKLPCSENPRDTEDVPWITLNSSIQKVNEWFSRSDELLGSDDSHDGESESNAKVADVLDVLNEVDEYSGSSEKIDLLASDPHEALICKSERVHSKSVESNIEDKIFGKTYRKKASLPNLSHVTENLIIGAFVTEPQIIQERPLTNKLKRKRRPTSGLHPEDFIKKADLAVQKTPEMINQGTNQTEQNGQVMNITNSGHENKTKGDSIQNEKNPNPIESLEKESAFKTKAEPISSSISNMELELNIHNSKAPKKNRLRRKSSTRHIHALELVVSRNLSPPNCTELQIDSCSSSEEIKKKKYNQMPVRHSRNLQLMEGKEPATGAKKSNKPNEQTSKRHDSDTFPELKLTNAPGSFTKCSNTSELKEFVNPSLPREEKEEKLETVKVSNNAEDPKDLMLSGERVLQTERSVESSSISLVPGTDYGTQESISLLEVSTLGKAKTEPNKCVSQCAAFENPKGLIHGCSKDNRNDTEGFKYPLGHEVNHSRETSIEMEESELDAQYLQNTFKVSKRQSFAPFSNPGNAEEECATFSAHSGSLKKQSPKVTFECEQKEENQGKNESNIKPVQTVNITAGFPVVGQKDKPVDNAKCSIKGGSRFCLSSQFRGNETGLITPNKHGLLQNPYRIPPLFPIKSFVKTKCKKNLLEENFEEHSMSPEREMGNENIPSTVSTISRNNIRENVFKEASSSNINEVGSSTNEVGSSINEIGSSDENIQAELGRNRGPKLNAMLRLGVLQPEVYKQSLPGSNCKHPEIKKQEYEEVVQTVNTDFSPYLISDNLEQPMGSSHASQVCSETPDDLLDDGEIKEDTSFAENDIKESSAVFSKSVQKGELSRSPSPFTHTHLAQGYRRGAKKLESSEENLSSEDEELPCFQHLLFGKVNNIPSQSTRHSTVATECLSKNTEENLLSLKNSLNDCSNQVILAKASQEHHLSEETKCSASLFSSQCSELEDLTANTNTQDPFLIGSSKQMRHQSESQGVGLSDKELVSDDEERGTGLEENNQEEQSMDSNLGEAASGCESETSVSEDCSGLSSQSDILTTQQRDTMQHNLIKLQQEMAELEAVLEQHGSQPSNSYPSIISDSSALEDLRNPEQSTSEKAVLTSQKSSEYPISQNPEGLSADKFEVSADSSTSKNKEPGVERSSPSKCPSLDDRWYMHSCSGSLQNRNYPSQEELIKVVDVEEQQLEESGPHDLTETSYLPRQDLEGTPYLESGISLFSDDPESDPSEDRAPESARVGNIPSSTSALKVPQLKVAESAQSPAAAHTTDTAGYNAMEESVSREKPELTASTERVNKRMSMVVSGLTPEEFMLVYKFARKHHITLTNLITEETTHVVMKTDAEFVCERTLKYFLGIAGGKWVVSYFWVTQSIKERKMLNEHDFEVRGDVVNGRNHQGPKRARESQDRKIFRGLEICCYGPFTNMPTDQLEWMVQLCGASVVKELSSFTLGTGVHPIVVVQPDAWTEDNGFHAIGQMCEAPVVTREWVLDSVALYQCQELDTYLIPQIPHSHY

| Variant | effect of a mutation on the interaction |
| --- | --- |
| S516A | disrupting interaction |

Variants of: B3
Conditions: with brca1_human BRCA1, P38398
Target sequence in this assay (P38398 whole entry, looked up): as above

| Variant | effect of a mutation on the interaction |
| --- | --- |
| S456A | disrupting interaction |
